Data taken from patent CN111777681A (SHANGHAI LIANGYUE BIOMEDICAL TECH CO LTD, dated 2020).

Target: T1, 人Claudin 18.2 (紧密连接蛋白-18.2) (human)
T1 construct: Full-length protein stably expressed on HEK293 or NIH-3T3 cells; also called 紧密连接蛋白18剪接变体2
Assay: flow cytometry on HEK293-Claudin 18.2 stable cells, recombinant antibody titrated from 600 nM in 3-fold steps

T1 sequence (chain, as listed by the source limits assumed): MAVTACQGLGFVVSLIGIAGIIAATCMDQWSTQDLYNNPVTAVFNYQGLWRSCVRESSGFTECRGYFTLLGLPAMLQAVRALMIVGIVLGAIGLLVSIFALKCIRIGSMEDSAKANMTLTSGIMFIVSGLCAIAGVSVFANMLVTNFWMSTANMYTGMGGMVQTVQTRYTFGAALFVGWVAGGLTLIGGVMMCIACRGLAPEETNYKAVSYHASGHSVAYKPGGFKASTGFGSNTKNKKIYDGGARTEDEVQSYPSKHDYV

| EC50 | Binder |
| --- | --- |
| 1.18 nM | 4F6-G11 (antibody, V domains shown, Mouse monoclonal antibody; also called 4F6-Gl1; 重组抗体4F6-G11) VH: DVQLVESGGGLVQPGGSRKLSCGASGFTFSSFGMHWVRQAPEKGLEWVAYISSDSSTKHYADIVKGRFTVSRDNPRNTLFLQMTSLGSEDTAIYYCARLRRGGNALDYWGQGTSVTVSS VL: DIVMTQSPSFLTVTAGEKVTMSCRSSQSLLNSGNQRNYLTWYQHKPGQSPKLLIYWASTRESGVPDRFTGSGSGTTFTLTISSVQPEDLAVFYCQNNYYFPFTFGSGTKLEIR |
| 1.01 nM | 3H2-C5 (antibody, V domains shown, Mouse monoclonal antibody; also called 抗体3H2-C5; 重组抗体3H2-C5) VH: DVQLVESGGGLLQPGGSRKLSCAASGFSFSNFGMHWFRQAPEKGLEWVAFISGGSSPIYYADTVKGRFTISRDNPTNTLFLQMTSLRSEDTAMYYCARFRRGGNAMDYWGQGTSVTVSS VL: DIVMTQSPSSLTVTAREKVTMSCKSSQSLFNSGNQRNYLTWYQQKPGQPPKLLIYWASTRESGVPDRFTGSGSGTDFTLTIRSVQAEDLAVYYCQNSYSYPFTLGSGTKLEIK |
